Biological target: T1, B3GNT2 (Homo sapiens, UniProt Q9NY97)
T1 construct: The respective ORFs of candidate genes [CD274 (NM_014143), MCL1 (NM_021960), JUNB (NM_002229), and B3GNT2 (NM_006577)] were synthesized; expressed in transfected cells; host or cells: A375 melanoma cells (lentiviral ORF overexpression)
T1 sequence (Q9NY97 1-397): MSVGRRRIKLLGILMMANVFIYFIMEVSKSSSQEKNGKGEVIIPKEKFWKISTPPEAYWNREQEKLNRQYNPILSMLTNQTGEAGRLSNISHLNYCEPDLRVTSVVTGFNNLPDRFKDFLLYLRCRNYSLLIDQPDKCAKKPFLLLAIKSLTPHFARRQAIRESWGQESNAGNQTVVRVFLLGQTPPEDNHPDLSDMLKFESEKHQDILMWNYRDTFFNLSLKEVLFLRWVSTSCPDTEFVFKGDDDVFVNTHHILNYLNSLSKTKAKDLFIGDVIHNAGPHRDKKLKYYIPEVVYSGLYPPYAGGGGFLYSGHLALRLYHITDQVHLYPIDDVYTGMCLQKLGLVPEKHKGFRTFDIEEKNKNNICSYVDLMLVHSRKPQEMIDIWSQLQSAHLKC
Assay: Co-IP of FLAG-tagged B3GNT2 followed by mass spectrometry
Type: cell-based
Set-up: C-term IgG / C-term flag: unit not given here
Details: mass spectrometry count, unit not given; for C-term flag / N-term FLAG: Co-IP with FLAG antibody; for C-term flag / C-term IgG: C-terminally FLAG-tagged B3GNT2; for N-term FLAG / N-term IgG: N-terminally FLAG-tagged B3GNT2; for C-term IgG / N-term IgG: Co-IP with IgG control antibody
Summary of the method: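 FLAG-tagged B3GNT2 immunoprecipitated from cell lysate (HEPES, 1% Triton X-100, 150 mM NaCl) with anti-FLAG versus […], overnight at 4° C, then captured on Protein A/G magnetic beads for 4 h. Two biological replicates per condition. Peptides fractionated and analyzed by nano-LC on an Orbitrap Elite in data-dependent mode.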

B1: PSMB6 (protein)
chain: TTIMAVQFDGGVVLGADSRTTTGSYIANRVTDKLTPIHDRIFCCRSGSAADTQAVADAVTYQLGFHSIELNEPPLVHTAASLFKEMCYRYREDLMAGIIIAGWDPQEGGQVYSVPMGGMMVRQSFAIGGSGSSYIYGYVDATYREGMTKEECLQFTANALALAMERDGSSGGVIRLAAIAESGVERQVLLGDQIPKFAVATLPPA
C-term flag: 3 | N-term FLAG: 5 | C-term IgG: 0 | N-term IgG: 0

B2: STAU1 (protein)
chain: MKLGKKPMYKPVDPYSRMQSTYNYNMRGGAYPPRYFYPFPVPPLLYQVELSVGGQQFNGKGKTRQAAKHDAAAKALRILQNEPLPERLEVNGRESEEENLNKSEISQVFEIALKRNLPVNFESFPLKQVARESGPPHMKNFVTKVSVGEFVGEGEGKSKKISKKNAAIAVLEELKKLPPLPAVERVKPRIKKKTKPIVKPQTSPEYGQGINPISRLAQIQQAKKEKEPEYTLLTERGLPRRREFVMQVKVGNHTAEGTGTNKKVAKRNAAENMLEILGFKVPQAQPTKPALKSEEKTPIKKPGDGRKVTFFEPGSGDENGTSNKEDEFRMPYLSHQQLPAGILPMVPEVAQAVGVSQGHHTKDFTRAAPNPAKATVTAMIARELLYGGTSPTAETILKNNISSGHVPHGPLTRPSEQLDYLSRVQGFQVEYKDFPKNNKNEFVSLINCSSQPPLISHGIGKDVESCHDMAALNILKLLSELDQQSTEMPRTGNGPMSVCGRC
C-term flag: 6 | N-term FLAG: 2 | C-term IgG: 0 | N-term IgG: 0

B3: KTN1 (protein)
chain: MEFYESAYFIVLIPSIVITVIFLFFWLFMKETLYDEVLAKQKREQKLIPTKTDKKKAEKKKNKKKEIQNGNLHESDSESVPRDFKLSDALAVEDDQVAPVPLNVVETSSSVRERKKKEKKQKPVLEEQVIKESDASKIPGKKVEPVPVTKQPTPPSEAAASKKKPGQKKSKNGSDDQDKKVETLMVPSKRQEALPLHQETKQESGSGKKKASSKKQKTENVFVDEPLIHATTYIPLMDNADSSPVVDKREVIDLLKPDQVEGIQKSGTKKLKTETDKENAEVKFKDFLLSLKTMMFSEDEALCVVDLLKEKSGVIQDALKKSSKGELTTLIHQLQEKDKLLAAVKEDAAATKDRCKQLTQEMMTEKERSNVVITRMKDRIGTLEKEHNVFQNKIHVSYQETQQMQMKFQQVREQMEAEIAHLKQENGILRDAVSNTTNQLESKQSAELNKLRQDYARLVNELTEKTGKLQQEEVQKKNAEQAATQLKVQLQEAERRWEEVQSYIRKRTAEHEAAQQDLQSKFVAKENEVQSLHSKLTDTLVSKQQLEQRLMQLMESEQKRVNKEESLQMQVQDILEQNEALKAQIQQFHSQIAAQTSASVLAEELHKVIAEKDKQIKQTEDSLASERDRLTSKEEELKDIQNMNFLLKAEVQKLQALANEQAAAAHELEKMQQSVYVKDDKIRLLEEQLQHEISNKMEEFKILNDQNKALKSEVQKLQTLVSEQPNKDVVEQMEKCIQEKDEKLKTVEELLETGLIQVATKEEELNAIRTENSSLTKEVQDLKAKQNDQVSFASLVEELKKVIHEKDGKIKSVEELLEAELLKVANKEKTVQDLKQEIKALKEEIGNVQLEKAQQLSITSKVQELQNLLKGKEEQMNTMKAVLEEKEKDLANTGKWLQDLQEENESLKAHVQEVAQHNLKEASSASQFEELEIVLKEKENELKRLEAMLKERESDLSSKTQLLQDVQDENKLFKSQIEQLKQQNYQQASSFPPHEELLKVISEREKEISGLWNELDSLKDAVEHQRKKNNDLREKNWEAMEALASTEKMLQDKVNKTSKERQQQVEAVELEAKEVLKKLFPKVSVPSNLSYGEWLHGFEKKAKECMAGTSGSEEVKVLEHKLKEADEMHTLLQLECEKYKSVLAETEGILQKLQRSVEQEENKWKVKVDESHKTIKQMQSSFTSSEQELERLRSENKDIENLRREREHLEMELEKAEMERSTYVTEVRELKDLLTELQKKLDDSYSEAVRQNEELNLLKAQLNETLTKLRTEQNERQKVAGDLHKAQQSLELIQSKIVKAAGDTTVIENSDVSPETESSEKETMSVSLNQTVTQLQQLLQAVNQQLTKEKEHYQVLE
C-term flag: 2 | N-term FLAG: 0 | C-term IgG: 0 | N-term IgG: 0

B4: TRAFD1 (protein)
chain: AEFLDDQETRLCDNCKKEIPVFNFTIHEIHCQRNIGMCPTCKEPFPKSDMETHMAAEHCQVTCKCNKKLEKRLLKKHEETECPLRLAVCQHCDLELSILKLKEHEDYCGARTELCGNCGRNVLVKDLKTHPEVCGREGEEKRNEVAIPPNAYDESWGQDGIWIASQLLRQIEALDPPMRLPRRPLRAFESDVFHNRTTNQRNITAQVSIQNNLFEEQERQERNRGQQPPKEGGEESANLDFMLALSLQNEGQASSVAEQDFWRAVCEADQSHGGPRSLSDIKGAADEIMLPCEFCEELYPEELLIDHQTSCNPSRALPSLNTGSSSPRGVEEPDVIFQNFLQQAASNQLDSLMGLSNSHPVEESIIIPCEFCGVQLEEEVLFHHQDQCDQRPATATNHVTEGIPRLDSQPQETSPELPRRRVRHQGDLSSGYLDDTKQETANGPTSCLPPSRPINNMTATYNQLSRSTSGPRPGCQPSSPCVPKLSNSDSQDIQGRNRDSQNGAIAPGHVSVIRPPQNLYPENIVPSFSPGPSGRYGASGRSEGGRNSRVTPAAANYRSRTAKAKPSKQQGAGDAEEEEEE
C-term flag: 2 | N-term FLAG: 0 | C-term IgG: 0 | N-term IgG: 0

B5: RRBP1 (protein)
chain: MDIYDTQTLGVVVFGGFMVVSAIGIFLVSTFSMKETSYEEALANQRKEMAKTHHQKVEKKKKEKTVEKKGKTKKKEEKPNGKIPDHDPAPNVTVLLREPVRAPAVAVAPTPVQPPIIVAPVATVPAMPQEKLASSPKDKKKKEKKVAKVEPAVSSVVNSIQVLTSKAAILETAPKEVPMVVVPPVGAKGNTPATGTTQGKKAEGTQNQSKKAEGAPNQGRKAEGTPNQGKKTEGTPNQGKKAEGTPNQGKKAEGTPNQGKKAEGAQNQGKKVDTTPNQGKKVEGAPTQGRKAEGAQNQAKKVEGAQNQGKKAEGAQNQGKKGEGAQNQGKKAEGAQNQGKKAEGAQNQGKKAEGAQNQGKKAEGAQNQGKKAEGAQNQGKKAEGAQNQGKKVEGAQNQGKKAEGAQNQGKKAEGAQNQGKKAEGAQNQGKKAEGAQNQGKKAEGAQNQGKKAEGAQNQGKKAEGAQNQGKKVEGAQNQGKKAEGAQNQGKKAEGAQNQGKKAEGAQNQGQKGEGAQNQGKKTEGAQGKKAERSPNQGKKGEGAPIQGKKADSVANQGTKVEGITNQGKKAEGSPSEGKKAEGSPNQGKKADAAANQGKKTESASVQGRNTDVAQSPEAPKQEAPAKKKSGSKKKGEPGPPDADGPLYLPYKTLVSTVGSMVFNEGEAQRLIEILSEKAGIIQDTWHKATQKGDPVAILKRQLEEKEKLLATEQEDAAVAKSKLRELNKEMAAEKAKAAAGEAKVKKQLVAREQEITAVQARMQASYREHVKEVQQLQGKIRTLQEQLENGPNTQLARLQQENSILRDALNQATSQVESKQNAELAKLRQELSKVSKELVEKSEAVRQDEQQRKALEAKAAAFEKQVLQLQASHRESEEALQKRLDEVSRELCHTQSSHASLRADAEKAQEQQQQMAELHSKLQSSEAEVRSKCEELSGLHGQLQEARAENSQLTERIRSIEALLEAGQARDAQDVQASQAEADQQQTRLKELESQVSGLEKEAIELREAVEQQKVKNNDLREKNWKAMEALATAEQACKEKLLSLTQAKEESEKQLCLIEAQTMEALLALLPELSVLAQQNYTEWLQDLKEKGPTLLKHPPAPAEPSSDLASKLREAEETQSTLQAECDQYRSILAETEGMLRDLQKSVEEEEQVWRAKVGAAEEELQKSRVTVKHLEEIVEKLKGELESSDQVREHTSHLEAELEKHMAAASAECQNYAKEVAGLRQLLLESQSQLDAAKSEAQKQSDELALVRQQLSEMKSHVEDGDIAGAPASSPEAPPAEQDPVQLKTQLEWTEAILEDEQTQRQKLTAEFEEAQTSACRLQEELEKLRTAGPLESSETEEASQLKERLEKEKKLTSDLGRAATRLQELLKTTQEQLAREKDTVKKLQEQLEKAEDGSSSKEGTSV
C-term flag: 16 | N-term FLAG: 2 | C-term IgG: 2 | N-term IgG: 0

B6: ERP44 (protein)
chain: EITSLDTENIDEILNNADVALVNFYADWCRFSQMLHPIFEEASDVIKEEFPNENQVVFARVDCDQHSDIAQRYRISKYPTLKLFRNGMMMKREYRGQRSVKALADYIRQQKSDPIQEIRDLAEITTLDRSKRNIIGYFEQKDSDNYRVFERVANILHDDCAFLSAFGDVSKPERYSGDNIIYKPPGHSAPDMVYLGAMTNFDVTYNWIQDKCVPLVREITFENGEELTEEGLPFLILFHMKEDTESLEIFQNEVARQLISEKGTINFLHADCDKFRHPLLHIQKTPADCPVIAIDSFRHMYVFGDFKDVLIPGKLKQFVFDLHSGKLHREFHHGPDPTDTAPGEQAQDVASSPPESSFQKLAPSEYRYTLLRDRDEL
C-term flag: 2 | N-term FLAG: 0 | C-term IgG: 0 | N-term IgG: 0
